The target in the data set is MBP-CCA1 (Arabidopsis thaliana, UniProt P92973 1-608). Put plainly: EMSA; 100 ng protein; 100 ng poly(dI-dC); EMSA: 10 mM Tris-HCl pH 7.6, 50 mM NaCl, 1 mM EDTA, 5 mM DTT, 5% glycerol, 100 ng poly(dI-dC), 30 min, room temperature; 6% native PAGE. To be noted: protein: recombinant; tags: MBP (N-terminal, pMAL-c2X); label: 32P end label. A general note: Mobility shift assays separate free from complexed probe on a gel.

Here are results for two molecules from publication PMC4875590, “LATE ELONGATED HYPOCOTYL regulates photoperiodic flowering via the circadian clock in Arabidopsis”.

Chain of MBP-CCA1 (P92973 whole entry): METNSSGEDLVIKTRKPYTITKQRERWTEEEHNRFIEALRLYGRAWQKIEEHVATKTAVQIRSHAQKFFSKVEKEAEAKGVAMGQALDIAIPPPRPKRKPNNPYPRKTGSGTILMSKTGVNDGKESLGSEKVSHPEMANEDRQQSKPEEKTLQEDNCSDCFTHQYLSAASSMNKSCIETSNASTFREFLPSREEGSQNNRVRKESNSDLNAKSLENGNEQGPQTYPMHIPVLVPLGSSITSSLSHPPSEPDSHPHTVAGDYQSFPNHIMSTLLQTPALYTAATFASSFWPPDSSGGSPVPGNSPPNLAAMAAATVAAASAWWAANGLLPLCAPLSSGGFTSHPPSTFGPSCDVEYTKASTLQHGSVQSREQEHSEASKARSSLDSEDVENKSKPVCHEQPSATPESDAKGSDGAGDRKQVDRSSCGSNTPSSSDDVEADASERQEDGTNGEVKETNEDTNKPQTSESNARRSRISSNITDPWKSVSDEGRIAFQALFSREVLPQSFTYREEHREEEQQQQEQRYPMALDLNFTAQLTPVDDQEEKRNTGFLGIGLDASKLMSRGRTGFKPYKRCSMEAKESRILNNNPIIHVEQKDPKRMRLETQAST

B1: FT CBS (dsDNA)
DNA 1: GCTTTAGATTTTTAATAG
DNA 2: CTATTAAAAATCTAAAGC
In the case of B1, the binding result is reported as “binds”.

B2: FT EE (dsDNA)
DNA 1: TAATTAAAATATCTGCAAA
DNA 2: TTTGCAGATATTTTAATTA
B2: the binding result is recorded as “binds”.
